B1: TMPRSS4 Ab5 scFv (VH-VL) (scFv)
scFv: QVQLVQSGAEVKKPGSSVKVSCKASGYTFTSYYMHWVRQAPGQGLEWMGRIIPILGATDYAQKFQGRVTITADESTSTAYMELSSLRSEDTAVYYCARAGYSSIAARPAFWGQGTLVTVSSGGGGSGSGGGGSGGGGSEIVMTQSPATLSVSPGERATLSCRASQSVSSNLAWYQQKPGQAPRLLIYGASTRATGIPARFSGSGSGTEFTLTISSLQSEDFAVYYCQQYYSPFPLTFGGGTKVEIK
notes: on monoclonal phage in the screen
B2: TMPRSS4 Ab59 scFv (VH-VL) (scFv)
scFv: QVQLVQSGAEVKKPGASVKVSCKASGGTFSSYTLSWVRQAPGQGLEWMGWIHPKSGVTKNAQKFQGRVTMTRDTSTSTVYMELSSLRSEDTAVYYCARGWVYGRMDAWGQGTTVTVSSGGGGSGGGGSGGGGSEIVMTQSPATLSVSPGERATLSCRASQSVSSNYLAWYQQKPGQAPRLLIYGASTRATGIPARFSGSGSGTEFTLTISSLQSEDFAVYYCQQYGTLPYTFGQGTKVEIK
notes: as for B1
B3: TMPRSS4 Ab60 scFv (VH-VL) (scFv)
scFv: QVQLVQSGAEVKKPGASVKVSCKASGYSFTTYYIHWVRQAPGQGLEWMGIINPSGGSTSYAQKFQGRVTMTRDTSTSTVYMELSSLRSEDTAVYYCARGGYYGSGYNSVGYWGPGTLVTVSSGGGGSGGGGSGGGGSEIVMTQSPATLSVSPGERATLSCRASQSVSSNTLAWYQQKPGQAPRLLIYGASTRATGIPARFSGSGSGTEFTLTISSLQSEDFAVYYCQQYGSSPLTFGPGTKVDIK
notes: as for B1
B4: TMPRSS4 Ab6 scFv (VH-VL) (scFv)
scFv: QVQLVQSGAEVKKPGASVKVSCKASGYTFTSYYMHWVRQAPGQGLEWLGIINPSDYTTSYAQKFQGRVTMTRDTSTSTVYMELSSLRSEDTAVYYCARVASSSWYPGDENWYFDLWGRGTLVTVSSGGGGSGSGGGGSGGGGSDIVMTQSPDSLAVSLGERATINCKSSQSVLYSSNNKNYLAWYQQKPGQPPKLLIYWASTRESGVPDRFSGSGSGTDFTLTISSLQAEDVAIYYCQQYYAIPWTFGQGTKVEIK
notes: as for B1
B5: TMPRSS4 Ab63 scFv (VH-VL) (scFv)
scFv: QVQLVQSGAEVKKPGASVKVSCKASGYTFTGYRMHWVRQAPGQGLEWMGVINPNTGTARFAQKFQGRVTMTRDTSTSTVYMELSSLRSEDTAVYYCASVGVYWYFDLWGRGTLVTVSSGGGGSGGGGSGGGGSDIVMTQSPDSLAVSLGERATINCKSSQSVLYSSNNKNYLAWYQQKPGQPPKLLIYWASTRESGVPDRFSGSGSGTDFTLTISSLQAEDVAVYYCQQYYSAPLTFGGGTKVEIK
notes: as for B1
B6: TMPRSS4 Ab61 scFv (VH-VL) (scFv)
scFv: QVQLVQSGAEVKKPGASVKVSCKASGYTFTNYYMHWVRQAPGQGLEWMGWMNPNSGNTGYAQNLQGRVTMTRDTSTSTVYMELSSLRSEDTAVYYCARGRTWFRSGMDVWGQGTTVTVSSGGGGSGGGGSGGGGSEIVMTQSPATLSVSPGERATLSCRASQSVSSYLAWYQQKPGQAPRLLIYGASTRATGIPARFSGSGSGTEFTLTISSLQSEDFAVYYCQQYDISVTFGPGTKVDIK
notes: as for B1
B7: TMPRSS4 Ab64 scFv (VH-VL) (scFv)
scFv: QVQLVQSGAEVKKPGASVKVSCKASGYTFTGYYMHWVRQAPGQGLEWMGMINPSGGGTTYAQKFQGRVTMTRDTSTSTVYMELSSLRSEDTAVYYCARDRRSMITFRTDYWGQGTLVTVSSGGGGSGGGGSGGGGSDIVMTQSPDSLAVSLGERATINCKSSQSVLYSSNNKNYLAWYQQKPGQPPKLLIYWASTRESGVPDRFSGSGSGTDFTLTISSLQAEDVAVYYCQQYYSTPYTFGQGTKLEIK
notes: as for B1
B8: TMPRSS4 Ab65 scFv (VH-VL) (scFv)
scFv: QVQLVQSGAEVKKPGASVKVSCKASGYTFTGYYMHWVRQAPGQGLEWMGWMNPNSGNTGYAQKFQGRVTMTRDTSTSTVYMELSSLRSEDTAVYYCAGRKWLGLDFYNWFDPWGQGTLVTVSSGGGGSGGGGSGGGGSDIVMTQSPDSLAVSLGERATINCKSSQSVLYSSNNKNYLAWYQQKPGQPPKLLIYWASTRQSGVPDRFSGSGSGTDFTLTISSLQAEDVAVYYCQQYYSTPWTFGQGTKVEIK
notes: as for B1
B9: TMPRSS4 Ab49 scFv (VH-VL) (scFv)
scFv: QVQLVQSGAEVKKPGASVKVSCKASGYTFTGYYMHWVRQAPGQGLEWMGRINPNSGGTNYAQKFQGRVTMTRDTSTSTVYMELSSLRSEDTAVYYCARERAGYSSGQFDYWGQGTLVTVSSGGGGSGGGGSGGGGSDIQMTQSPSSLSASVGDRVTITCRASQSISNWLAWYQQKPGKAPKLLIYAASTLQNGVPSRFSGSGSGTDFTLTISSLQPEDFATYYCQQSYTFPITFGQGTKVEIK
notes: as for B1
B10: TMPRSS4 Ab53 scFv (VH-VL) (scFv)
scFv: QVQLVQSGAEVKKPGASVKVSCKASGYTFTRYYMHWVRQAPGQGLEWMGIINPTGGSTSYAQKFQGRVTMTRDTSTSTVYMELSSLRSEDTAVYYCARGRTWIQSSLGYWGQGTLVTVSSGGGGSGGGGSGGGGSDIQMTQSPSSLSASVGDRVTITCRASRSINRWLAWYQQKPGKAPKLLIYGASTLQSGVPSRFSGSGSGTDFTLTISSLQPEDFATYYCQQSYSTPTFGGGTKVEIK
notes: as for B1
B11: TMPRSS4 Ab50 scFv (VH-VL) (scFv)
scFv: QVQLVQSGAEVKKPGASVKVSCKASGYTFTGYYMHWVRQAPGQGLEWMGWINPNSGGTHYAQKFQGRVTMTRDTSTSTVYMELSSLRSEDTAVYYCARVRIGWLQSPPLYWGQGTLVTVSSGGGGSGGGGSGGGGSDIQMTQSPSSLSASVGDRVTITCRASQGISNYLAWYQQKPGKAPKLLIYATSRLQSGVPSRFSGSGSGTDFTLTISSLQPEDFATYYCQQSYKTPLTFGGGTKVEIK
notes: as for B1
B12: TMPRSS4 Ab54 scFv (VH-VL) (scFv)
scFv: QVQLVQSGAEVKKPGASVKVSCKASGYTFTSYYMQWVRQAPGQGLEWMGWMNPNSGNTGYAQKFQGRVTMTRDTSTSTVYMELSSLRSEDTAVYYCARVRIGWLQSPPLYWGQGTLVTVSSGGGGSGGGGSGGGGSDIQMTQSPSSLSASVGDRVTITCRASQGISNYLAWYQQKPGKAPKLLIYAASSLQSGVPSRFSGSGSGTDFTLTISSLQPEDFATYYCQQSYSIPFTFGPGTKVDIK
notes: as for B1
B13: TMPRSS4 Ab52 scFv (VH-VL) (scFv)
scFv: QVQLVQSGAEVKKPGASVKVSCKASGYTFTRYYIHWVRQAPGQGLEWMGWMNPNSGNTGFAQKLQGRVTMTRDTSTSTVYMELSSLRSEDTAVYYCARGPFPRGRLDLWGQGTLVTVSSGGGGSGGGGSGGGGSDIQMTQSPSSLSASVGDRVTITCRASQGISRWLGWYQQKPGKAPKLLIYGASNLQTGVPSRFSGSGSGTDFTLTISSLQPEDFATYYCQQSYSSPRTFGQGTKVEIK
notes: as for B1
B14: TMPRSS4 Ab62 scFv (VH-VL) (scFv)
scFv: QVQLVQSGAEVKKPGASVKVSCKASGYTFTDYYIHWVRQAPGQGLEWMGWISTYNGNTNYAQKLQGRVTMTRDTSTSTVYMELSSLRSEDTAVYYCARGMVRGMDVWGQGTMVTVSSGGGGSGGGGSGGGGSDIVMTQSPDSLAVSLGERATINCKSSQSVLYSSNNKNYLAWYQQKPGQPPKLLIYWASTRESGVPDRFSGSGSGTDFTLTISSLQAEDVAVYYCQQYYTTPWTFGQGTRLEIK
notes: as for B1

In the assay the target is T1, Human TMPRSS4 (Transmembrane protease, serine 4), wild type full length (human, UniProt Q9NRS4 1-437).
T1 construct: Type II membrane protein over-expressed on HEK293T cells (also endogenous on H1975 and LUDLU-1 cells); also called TMPRSS4 WT; HEK293T-TMPRSS4
T1 sequence (Q9NRS4 whole entry): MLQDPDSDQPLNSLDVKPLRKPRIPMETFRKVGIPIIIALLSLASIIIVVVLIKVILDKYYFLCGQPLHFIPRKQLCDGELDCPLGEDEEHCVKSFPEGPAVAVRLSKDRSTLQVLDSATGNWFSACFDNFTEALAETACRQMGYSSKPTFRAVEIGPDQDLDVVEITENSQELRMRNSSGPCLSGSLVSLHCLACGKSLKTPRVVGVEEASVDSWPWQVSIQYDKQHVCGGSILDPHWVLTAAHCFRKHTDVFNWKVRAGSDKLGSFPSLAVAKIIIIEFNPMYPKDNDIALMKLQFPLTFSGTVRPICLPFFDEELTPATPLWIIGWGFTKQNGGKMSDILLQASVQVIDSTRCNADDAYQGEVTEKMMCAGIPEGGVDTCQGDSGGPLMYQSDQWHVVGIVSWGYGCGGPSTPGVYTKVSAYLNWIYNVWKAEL
In words: flow cytometry, monoclonal phage on HEK293T-TMPRSS4 cells.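 Note: bound phage detected with a PE-labelled mouse anti-M13 monoclonal antibody, read by flow cytometry.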 On the technique in general: A flow cytometer gives signals particle by particle.
With B1, the binding result was “binds”. Under B2 stands “binds”; under B3, “binds”. With B4, the binding result is reported as “binds”. Next, B5: “binds”; B6: “binds”. As to B7, the binding result is given as “binds”.

For B8, the binding result is “binds”. With B9, the binding result was “binds”.

Regarding B10, the binding result is recorded as “binds”. Under B11 stands “binds”.

B12: the binding result is listed as “binds”.

Turning to B13, the binding result is reported as “binds”.

On to B14, for which the binding result is given as “binds”.

(Values after patent US20250297255A1 (ARSENAL BIOSCIENCES, published 2025).)
